Assay: label from the status in PepcDB records

Sequence | protein production
MSGSLEIPGLDDGLLPVETGYGLFQGTAKKRVVICNDNDKFRHSGPLPRALCGSFAAIGLLPLPVVETRPAPPPKVAPITPALQGKACGQAVFEGLRNKNAVETVDNLPALRQTARTGKRWKALESLMQETPAIIYKIVPETLWTAARAEGMFEGAAIDLTDGFIHFSTAKQVAETAARHFSGQVDLLLIAVDGAALGDKLVYEPSRGGDLFPHLYAPLPFSAVLWETPLSLDHDGQHQFPEILLEHHHHHH | failed
MSGTLLAFDFGTKSIGVAVGQRITGTARPLPAIKAQDGTPDWNIIERLLKEWQPDEIIVGLPLNMDGTEQPLTARARKFANRIHGRFGVEVKLHDERLSTVEARSGLFEQGGYRALNKGKVDSASAVIILESYFEQGY | not failed
MSGVRFPSGSLKDVRFFLHLFFSSKYGIIYVRYLDEEGTIMKQIIISVGREFGSGGHIVAQKLAEHYDIPIFNKELLEEMARKEGYSEKALEKYDEKPVNFGFMPLPYAGGNIPIEQEIAMKQFEFIKNKADAGESFVIVGRCADEILAYNPNLVSVFITGDRESKIARVMDREGLDRKQAINKMKRMDKIRKTYHNFYCRNKWGDSRGYDICINTGKTDFDTAKNMVVECVDKLKERSE | failed
MSGWYELSKSSNDQFKFVLKAGNGEVILTSELYTGKSGAMNGIESVQTNSPIEARYAKEVAKNDKPYFNLKAANHQIIGTSQMYSSTAARDNGIKSVMENGKTTTIKDLTLEHHHHHH | not failed
MSHAIQIREAHFPGRAPIDAYGNGGFRFADMSHRGSIICIPSGIYGIDMTGPVPTQEDISRVLEESDQIEVLLIGTGVELLRLPEELRVLLWEKRISSDTMSTGAAVRTFNVLLAEDRAVAALLFAVE | not failed
MSHCSCHDKPQHSLLPAAYRILSITRHTPLEWNFRVAVDFPAHWGQFVEVSLPRVGEAPISVSDYGDGWIDLLIRNLGKVTSALFTLKEGDNVWLRGCYGNGYPVDTLRHKPLLVVAGGTGVAPVKGLMRYFVENPQEIGQLDMILGYKNRDCVLYKEEMATWRGKHNLVLTLDEGEADDRYQIGRVTDRLADMTLSDIDTMQAIVVGPPIMITFTVKMLLQKGLKPEQIWVDYERRMACSVGKCGHCRMGEVYVCTDGPIFNYAVAQRFAD | failed
MSHHNPLVSVVIPSKNRPDLVIATLVSVIDQTYDNIEIIVVDDGSDMPLAPLLKDRFSDRVLCLRNDQSLGGAVARNRGAQSAHGDYITFLDDDDLWLPKKLEMQVDAFSKHGVDIGVVYCGFDFLCKEEIVPRQNKFHNDYDLSIAVLSGCPFGSPTPLIRKHYFDMVGGFDRELPSCQDWDLWIRLSKVCGFYPVKESLALYRVHGDQISTNLRKKIDGRKMVLAKHYDEIKNYPRVLSAHYSRIGSLCVLADEHVEARDFFSKALASNMFDGGSFVHLVLQFLCRPLEKWLIERFSVNTIDGIKVIHLEHHHHHH | failed
MSHHVQREIRYNFEFDHRIRACFIGAGGHAYRNVYPALRYAPVELSGICDLDIGRAEKFAKLFGAGKAYTDHREMLEQEKPELVFLVTAYHPDGRVQATDLALDALASGAHVWMEKPTAASLEDIERLQAASAAAGRMVMTGLKKTFFPTIEKLRDLIGSPGFGRLTSINVRYPQSLPGQEDRADLVKMQSFLDHIYHPGAILHFLGGEIERAGYEWEALTGATITSLRFHSGAIGTLHLAAGQSGSSIFERVEIIGEGANAIVENGSRLTYFRKADLPSYGRAASFIQPDENAALFYEPEHSLGQLYNNNLFYLGYVPEILHLTDAILSGTPISRGTLEIAREIMKLFEFYRRTDAGVTTNL | failed
MSIDIQLFYLPLHTNNPLILNKQMKLRNVSAGIVLCLTMVSCIQDEALNVEAAIDGCSGTNIQLSTINPSSKTASIYVSKSTDLSALEIKFTLPDGASIEPVNAIANDAPPKYDFSTSQIPITPEQTLEQYQRKFRVTSESETTEAVYTITVIKSELPTNFHFENLVDGSSDYHELYEFNQQQGETLQWASGNPGFKLTGMAKSPFDYPTLQTEGYIGKGIRLETKSTGDFGEKVKMPIAAGNLFIGTFIVKDALRDAKAATKFGFPFFKHPKTLKGYYKFQPGTVYISGTDENRKPIIDPSMEGKDKGDIYAVLYEADDVEDFLDGYNSLNSNKIIALARIPSIEKTSEWKQFELPFEYKKAIDESALKEGKYKLAVVFSSSINGAEFKGSVGSTLWIDEVTIQCKEDNE | failed
MSIDWAALGSVFGVSLVVTVGLVGLFTLGIVGLTKKESAEGGSAALATTGAYACFAACAAAVAYGIYLIVA | failed
MSIEATLLARCESKCELCSSESPLTAYAVPPHGNVTVDTAIMVCDKCHSEIEEPKDINHWRCLNESMWSQVPAVQVTAWRQLTRLNSESWAQDALDMMYMEEEQKNWAMTGMSADDKTVDCNGTELKKGDDVTVIKDLPVKGTNQVIKQGTVIRGISLGDDPKLISGKANGGQSMYVIAEYCRKKLEHHHHHH | failed
MSIEKKVGFFFIAGLVLLGVMLELGEKWNPFQKAIPYKTYLSSTTGLKLGDPVRLAGVEVGKITKIAIADSRVEVAFEVKPGTAIKADSVATIRLTNLLGGQFLGLSFGSPDAPVLPPGSAVKSRETANIDVIVDNVGDLAKDAKVLIKDLTVNQKEVFQKVSSMLDENRGNLRGAIENMNSITTKMDRGQGSLALLLNDKSLYRNTNELAASMKNVTAKIEKGEGSLGKFVNDDAFYRDAKGAVANLNDGAKDIKEIAAKINRGEGSVGKLVNDESLYNELRDASKNVGEVAKKINNGQGTLGKLVNDDTLYRDTTAAMKKLDKATEGLSDTGPISVIGSMVGTLFLEHHHHHH | not failed
MSIEPDGTVNRPEENIHLLQLHDSPVMRWLYLSIGMTALFMGILGIFLPILPTTPFILLAAGCFARSSERFHSYLLNHRIAGPIIREWCEYRSVARHVKRWAYLVMALSFGSSILIVSSWWLKGMLALLAMILFTFIWRLPVRDQSR | failed
MSIFTAAMIALVYWISQAKVWYGFSIMRMPLSIAPIMGLIFNDMPTALSVGATLQMIYIGSIAPGGNPPADEGLASCIAIPIALTAGIKPEIAISLAIPLGLLGVVLENVRKTLNTTFIHMADRYAEKGDIKGIQRAATIYPLLLAFPMRFVPVFIACLYGPDAIASFVNLLPAWSTNGLAIAGNILPALGFAITIIVIGKKQYIPLFIIGFFLVTYSGLNTIGISIFGLCAVLLYMQSQNTKGTKNG | failed
MSILHTVNKSPFERNSLESCLKFATEGASVLLFEDGIYAALAGTRVESQVTEALGKLKLYVLGPDLKARGFSDERVIPGISVVDYAGFVDLTTECDTVQAWL | not failed
MSILKVIKQKWVALGALLGSGALVGLSTNLAKVAYGQDLAPFPFLTWSLAGATLILGSISFLTKQTPPTNTGAIKYYFIAGFFSVAGSNLILFSAVSHVGVSFVVLVISLTPIFTYIAALALGMEIFSRWRVASVIFSLAGTALLVTAKLSLPETNHLWILITLIGPVLLASGNIYRTSHWPKGAKPESLAPGMLLAATATLVLAAISIQGVSLFALFNTENIGLIVLQSIIFSGQFLLLFVLQKAGGPVFLSLTGAVSAAFGIPFAMALLDEPMLPALAPSALLIVTGIIFMMKEQAISNA | failed
MSILTIILIVLLVILLFKVGLSILRFLISVGIVLLCIYLGYQGVLWLFEHFQNFSGFIQ | failed
MSIMKDPNHSPHSGGMLLGFIGVAIFSQTLPFTRMAVAELDATFVALGRAVIAAALALALLAMRGALASGRRPRGGQWLRLAVTALGVVVGFPVFSSLAMREVPSGHGAIVIGLLPLATAVFAAWFGNERPSLGFWLSALAGSALVVAFALWQGAGGLQHADWYLFLAVVLGALGYAEGGKLSRELGGLETISWALVVSLPVLAPVVAWLGLEHAASIAAASPRAWLGMAYVSVFSMFIGFLFWYAGLAKGGVARVGQIQLLQPFLTLAGGALILAEPLDAATVAFAVAVIAVVALGRRAAVRNTAPAMPLASAAEEAPPILPGRLH | failed
MSINIDSGQDSDQEHDDVMYPQVLPFVLIHAGCLAAIWSGVSWQAVAICVALYWLRMFGITAGYHRYFSHRAYATSRAFQFILAFLAQSSAQKSVLWWAAKHRHHHLHSDTAQDVHSPRHKGFVYSHLGWIFYRQHDATDLVKVSDLASYPELMWLHRLELLPAVVLAGLCFLIAGWSGLVVGFMWSTVVLYHATFCINSLAHVHGRRRYVTGDDSRNNWLLALLTMGEGWHNNHHAYQASARQGFYWYEVDLTYYALVALSWLGIVWDLKLPPRQVLRNEHRLGSRVVKQAAEQLAARFDPEHIALAIRTSIHETELSVRDALSLLQHRADLRLSSMPTREQLLAEAQRMFAKTISLDDIVDRAYELLHDSVGFLLATPALSANTNAKSGI | failed

Reference: a protein production outcome set (Wang et al. 2014)
